Data: paper PMC9385479, “GTSF1 accelerates target RNA cleavage by PIWI-clade Argonaute proteins” (Nature, 2022)
Numbering of substitutions follows the chain as printed. Numbers in names are those of the source. Blank lines part the entries; values can stand above or below the molecule they belong to.

How the values were obtained:
[1] = target: MIWI (PIWIL1), mouse, 3×Flag–SNAP-tagged recombinant, loaded with a synthetic piRNA (MIWI piRISC) (mouse) (UniProt Q9JMB7)
[2] = target: T1, MIWI (PIWIL1), mouse, 3×Flag–SNAP-tagged recombinant, loaded with a synthetic piRNA (MIWI piRISC) (mouse, UniProt Q9JMB7 1-862, methylarginines (positions in Extended Data Fig. 1h)); assay: enzyme kinetics titration (pre-steady-state target-cleavage rate k_burst against GTSF1 concentration); k_burst of MIWI piRISC measured at 1–5,000 nM GTSF1 and fit to kburst=kpot[GTSF1]/(Kd+[GTSF1]); Kd is for the MIWI piRISC–target RNA ternary complex; settings: both partners purified
T1 construct: Mouse MIWI (PIWIL1); cDNA from the Mammalian Gene Collection; not shown: 3×Flag, N-terminal, kept; SNAP, N-terminal, kept
T1 sequence (looked up): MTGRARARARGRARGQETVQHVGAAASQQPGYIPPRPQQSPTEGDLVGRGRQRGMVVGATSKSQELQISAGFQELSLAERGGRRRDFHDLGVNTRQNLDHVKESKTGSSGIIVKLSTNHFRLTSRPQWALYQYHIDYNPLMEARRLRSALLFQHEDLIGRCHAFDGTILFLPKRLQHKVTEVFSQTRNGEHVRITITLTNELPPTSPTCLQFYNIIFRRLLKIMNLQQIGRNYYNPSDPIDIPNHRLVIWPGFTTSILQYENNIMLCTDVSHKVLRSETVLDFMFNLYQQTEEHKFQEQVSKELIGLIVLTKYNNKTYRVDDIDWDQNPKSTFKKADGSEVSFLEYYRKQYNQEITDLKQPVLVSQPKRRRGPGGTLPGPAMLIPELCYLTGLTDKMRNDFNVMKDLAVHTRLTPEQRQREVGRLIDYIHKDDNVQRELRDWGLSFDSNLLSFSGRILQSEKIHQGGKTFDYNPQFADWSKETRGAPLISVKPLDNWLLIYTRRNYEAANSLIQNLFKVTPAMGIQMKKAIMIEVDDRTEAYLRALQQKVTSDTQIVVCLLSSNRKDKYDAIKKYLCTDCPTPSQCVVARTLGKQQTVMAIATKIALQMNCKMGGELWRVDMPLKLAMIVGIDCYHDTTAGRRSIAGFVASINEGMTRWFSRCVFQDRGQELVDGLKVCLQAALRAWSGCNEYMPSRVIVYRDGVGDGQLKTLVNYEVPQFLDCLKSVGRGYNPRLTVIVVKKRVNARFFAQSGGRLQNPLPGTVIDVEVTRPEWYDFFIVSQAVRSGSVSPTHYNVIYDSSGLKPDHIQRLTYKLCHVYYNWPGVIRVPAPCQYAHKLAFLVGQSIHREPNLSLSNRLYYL

amount of target RNA cleaved by MIWI piRISC with 100 nM recombinant GTSF protein (fold increase) [1]: 2.6 fold
Molecule: BmGtsf1-like, Bombyx mori, V5SBP-tagged purified recombinant (natural protein)

Kd [2]: 8 nM
B1: Gametocyte specific factor 1 (GTSF1), mouse, wild type, purified recombinant (natural protein, UniProt Q9DAN6 1-167, looked up)
chain: MEDTYIDSLDPEKLLQCPYDKNHQIRACRFPYHLIKCRKNHPDVANKLATCPFNARHQVPRAEISHHISSCDDKSCIEQDVVNQTRNLGQETLAESTWQCPPCDEDWDKDLWEQTSTPFVWGTASFCGNNSPANNIVMEHKSNLASGMRVPKSLPYVLPWKNNGNAQ
notes: Mouse GTSF1, tandem CHHC-type zinc-finger protein, printed mass 19,083 Da; cDNA synthesized at Twist Biosciences; Grown with 1 uM ZnSO4 (zinc-finger protein); also called wild-type GTSF1; MmGtsf1; source: E. coli Rosetta-Gami 2 (pCold-GST), purified (glutathione Sepharose, HRV3C cleavage, HiTrap Q)

Kd [2]: 500 nM
B2: GTSF1(W98A/W107A/W112A), mouse, PIWI-interacting mutant, purified recombinant (natural protein, UniProt Q9DAN6 1-167, looked up)
chain: B1 chain with W98A, W107A, W112A
notes: Mouse GTSF1 with W98A, W107A and W112A; expression vector synthesized at Twist Biosciences; also called PIWI-int mutant GTSF1; source: E. coli Rosetta-Gami 2 (pCold-GST), purified (glutathione Sepharose, HRV3C cleavage, HiTrap Q)
